Laboratory results published in patent US20040009486A1, “Compositions and methods utilizing DNA polymerases” (priority 1999, published 2004).
Where two headings read alike, the source gives them in different places.

Assays:
[1] = test system: primer:template; assay: Fidelity screen with rhodamine labeled non-complementary ddNTP; type: biochemical; conditions: R110-labeled incorrect ddNTP
Procedure: Reactions (10 μl) contained 1 unit of enzyme in 1× reaction buffer, 15 nM primer template, 25 nM of unlabeled complementary ddNTP, and 25, 100, 500, or 1000 nM of rhodamine labeled non-complementary ddNTP in four separate reactions. The reactions were incubated in a Perkin-Elmer 9600 for 25 cycles as follows: 96° C. for 10 s, 50° C. for 5 s, and 60° C. for 30 s. The reactions were then quenched with ice-cold 0.2 M EDTA (final concentration) and the products were purified from unincorporated rhodamine labeled ddNTPs and analyzed as described above.
Fidelity was determined as the tendency of a DNA polymerase to incorporate the correct nucleotide in the presence of increasing amounts of a non-complementary nucleotide. These assays employed constant amounts of primer:template, an unlabeled complementary ddNTP and DNA polymerase, and various concentrations of a rhodamine-labeled non-complementary ddNTP, as described in the Experimental Protocol. The amount of misextended primers is plotted against the ratio of rhodamine-labeled incorrect ddNTP/unlabeled correct ddNTP (FIG. 18 panels A and B). We performed similar assays for all possible mispairs (Table IX).
To address these concerns, the insertion fidelity of the JDF-3 P410L/A485T and Taq F667Y mutants was compared. In the first set of fidelity assays, a constant amount of primer:template, an unlabeled complementary ddNTP, and increasing concentrations of R110-labeled non-complementary ddNTP was used (Materials and Methods). […] The amount of misextended primers was determined and plotted against the ratio of R110-labeled incorrect ddNTP/unlabeled correct ddNTP (FIG. 27, panels A and B). Similar assays for all 12 possible mispairs was performed (ddG:dT, ddT:dG, ddT:dC, ddC:dT, ddC:dA, ddA:dC, ddA:dG, ddG:dA, ddT:dT, ddC:dC, ddA:dA, ddG:dG). […] The other mispairs are formed less frequently, and at similar rates for the JDF-3 P410L/A485T and Taq F667Y mutants (data not shown).
Fidelity assays using labeled ddNTPs (10 μl) contained 1 unit DNA polymerase in 1× reaction buffer, 15 nM primer: template, 25 nM of unlabeled complementary ddNTP, and 25, 100, 500, or 1000 nM of rhodamine-labeled non-complementary ddNTP in four separate reactions. The reactions were incubated in a Perkin-Elmer 9600 for 25 cycles as follows: 96° C. for 10 s, 50° C. for 5 s, and 60° C. for 30 s. The reactions were quenched and analyzed as above.

[2] = test system: rhodamine labeled-ddNTP and primer:template (pBluescript II); assay: Steady-state kinetics for rhodamine labeled ddNTPs and primer:template; type: biochemical; conditions: 60° C.
Procedure: Km and Vmax values for rhodamine labeled-ddNTP incorporation were measured by incubating 50 nM primer: template with limiting amounts of polymerase (0.1 units or 5 nM) and varying concentrations of rhodamine labeled-ddNTP ranging from 0.1 nM to 500 nM. Samples were incubated at 60° C. for 10 minutes. The reactions were then quenched with ice-cold 0.2 M EDTA (final concentration). Unincorporated rhodamine labeled ddNTPs were removed by purifying the extended primer:templates on CENTRI-SEP spin columns. Reactions were then dried, and the pellets dissolved in 3:1 formamide:EDTA/blue dextran and analyzed by 6% denaturing PAGE on an ABI 377 sequencer. All peak area quantitations were performed using 3.1.2 GeneScan software and Km and Vmax values were calculated using Lineweaver-Burk plots.
Km and Vmax values for primer:template were measured with limiting amounts of enzyme (0.1 units or 5 nM) in the presence of 100 nM of R110-ddGTP and varying concentrations of primer:template (pBL31G:pBluescript II) ranging from 0.5 to 100 nM. Samples were incubated for 10 minutes at 60° C. The reactions were then quenched, purified from unincorporated rhodamine labeled-ddNTPs, and analyzed as described above.
Km and Vmax values for rhodamine-ddNTP incorporation were measured as described Patel, P. H. et al. (2001). J. Biol. Chem. 276, 5044-51 by incubating 50 nM primer:template with limiting amounts of DNA polymerase (0.1 units, 5 nM) and varying concentrations of rhodamine labeled-ddNTP (0.1 nM to 500 nM). All single nucleotide incorporations with R6G-ddATP and TAMRA-ddATP employed pBL34A:pBluescript II, while reactions with TAMRA-ddCTP were performed with pBL25C:pBluescript II. The 10× reaction buffer used for JDF-3 DNA polymerase contained 200 mM Tris-HCl (pH 8.8), 100 mM KCl, 100 mM (NH4)2SO4, and 20 mM MgSO4, while the 10× reaction buffer employed with the Taq F667Y mutant consisted of 260 mM Tris-HCl (pH 9.5) and 65 mM MgCl2. Samples were incubated at 60° C. for 10 minutes, and the reactions were quenched with ice-cold 0.2 M EDTA (final concentration). Unincorporated rhodamine-ddNTPs were removed with CENTRI-SEP spin columns according to the manufacturer's manual. Reactions were dried, and the pellets were dissolved in 3:1 formamide:EDTA/blue dextran and analyzed by 6% denaturing PAGE on an ABI 377 sequencer. Peak area quantitations were performed using 3.1.2 GeneScan® software and Km and Vmax values were calculated using Lineweaver-Burk plots.
Km and Vmax values for primer:template were measured with limiting amounts of enzyme (0.1 units, 5 nM) in the presence of 100 nM dye-ddNTP and varying concentrations of primer:template (0.5-100 nM). Single nucleotide incorporations with R110-ddGTP employed pBL31G:pBluescript II, while reactions with ROX-ddCTP were carried out with pBL25C:pBluescript II. Samples were incubated and analyzed as described above.

[3] = literature values; cited from earlier work

Taq F667Y: ThermoSequenase, Taq F667Y mutant DNA polymerase from Amersham Pharmacia Biotech
ddG:dT mispair formation frequency, higher than JDF-3 P410L/A485T [1]: 20 fold
ddT:dC mispair formation frequency, higher than JDF-3 P410L/A485T [1]: 3 fold
Vmax(fmol/min) TAMRA-ddCTP ([2]; pBL25C:pBluescript): 2.3 fmol/min
Km ([2]; pBL25C:pBluescript, read-out: Km(nM) TAMRA-ddCTP): 0.3 nM
Vmax(fmol/min) Primer:template ([2]; pBL31G:pBluescript, 100 nM R110-ddGTP): 7.4 fmol/min
Km ([2]; pBL31G:pBluescript, 100 nM R110-ddGTP, read-out: Km(nM) Primer:template): 8 nM
Vmax(fmol/min) R6G-ddATP ([2]; pBL34A:pBluescript): 9 fmol/min
Vmax(fmol/min) TAMRA-ddATP ([2]; pBL34A:pBluescript): 1.9 fmol/min
Km ([2]; pBL34A:pBluescript, read-out: Km(nM) R6G-ddATP): 0.35 nM
Km ([2]; pBL34A:pBluescript, read-out: Km(nM) TAMRA-ddATP): 0.6 nM
dideoxynucleotide incorporation relative to unmutated / wild type enzyme [3]: 3000-8000 fold
